Results taken from the supplement of paper PMC11316812.
± gives the standard deviation of the averaged measurements.

How the values were obtained:
[1] = tested on: MCF7; assay: percentage of EdU-negative (G0-arrested) nuclei per well, 72 h; higher = more G0 arrest; conditions: reference: sequence is the full UniProt precursor, the tested protein was the secreted form or ectodomain
[2] = tested on: hTERT-HMEC; assay: as above; conditions: reference: sequence is the full UniProt precursor, the tested protein was the secreted form or ectodomain
[3] = protein concentration 0.02225 µM
[4] = protein concentration 0.2225 µM
[5] = protein concentration 0.0225 µM
[6] = protein concentration 0.03125 µM
[7] = protein concentration 0.3125 µM
[8] = protein concentration 0.0142825 µM
[9] = protein concentration 0.142825 µM
[10] = protein concentration 0.01475 µM
[11] = protein concentration 0.1475 µM
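Also: secreted proteins added to cultured cells, EdU pulse at the end, nuclei found by Hoechst imaging, EdU status from nuclear versus surrounding ring intensity ratio, PBS as neutral control.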

## MRNWLVLLCPCVLGAALHLWLRLRSPPPACASGAGPADQLALFPQWKSTHYDVVVGVLSARNNHELRNVIRSTWMRHLLQHPTLSQRVLVKFIIGAHGCEVPVEDREDPYSCKLLNITNPVLNQEIEAFSLSEDTSSGLPEDRVVSVSFRVLYPIVITSLGVFYDANDVGFQRNITVKLYQAEQEEALFIARFSPPSCGVQVNKLWYKPVEQFILPESFEGTIVWESQDLHGLVSRNLHKVTVNDGGGVLRVITAGEGALPHEFLEGVEGVAGGFIYTIQEGDALLHNLHSRPQRLIDHIRNLHEEDALLKEESSIYDDIVFVDVVDTYRNVPAKLLNFYRWTVETTSFNLLLKTDDDCYIDLEAVFNRIVQKNLDGPNFWWGNFRLNWAVDRTGKWQELEYPSPAYPAFACGSGYVISKDIVKWLASNSGRLKTYQGEDVSMGIWMAAIGPKRYQDSLWLCEKTCETGMLSSPQYSPWELTELWKLKERCGDPCRCQAR [Q8NCR0]
[1]; [3]
  percentage of EdU-negative: 25.7 ± 4.8%
[1]; [4]
  percentage of EdU-negative: 29.39 ± 0.067%
[2]; [3]
  percentage of EdU-negative: 5.56 ± 0.58%
[2]; [4]
  percentage of EdU-negative: 11 ± 1%

## MAPISLSWLLRLATFCHLTVLLAGQHHGVTKCNITCSKMTSKIPVALLIHYQQNQASCGKRAIILETRQHRLFCADPKEQWVKDAMQHLDRQAAALTRNGGTFEKQIGEVKPRTTPAAGGMDESVVLEPEATGESSSLEPTPSSQEAQRALGTSPELPTGVTGSSGTRLPPTPKAQDGGPVGTELFRVPPVSTAATWQSSAPHQPGPSLWAEAKTSEAPSTQDPSTQASTASSPAPEENAPSEGQRVWGQGQSPRPENSLEREEMGPVPAHTDAFQDWGPGSMAHVSVVPVSSEGTPSREPVASGSWTPKAEEPIHATMDPQRLGVLITPVPDAQAATRRQAVGLLAFLGLLFCLGVAMFTYQSLQGCPRKMAGEMAEGLRYIPRSCGSNSYVLVPV
[1]; [5]
  percentage of EdU-negative: 24.7 ± 2.4%
[1]; protein concentration 0.225 µM
  percentage of EdU-negative: 25.18 ± 0.043%
[2]; [5]
  percentage of EdU-negative: 4.91 ± 0.028%
[2]; protein concentration 0.225 µM
  percentage of EdU-negative: 5.92 ± 0.33%

## MRFLAATFLLLALSTAAQAEPVQFKDCGSVDGVIKEVNVSPCPTQPCQLSKGQSYSVNVTFTSNIQSKSSKAVVHGILMGVPVPFPIPEPDGCKSGINCPIQKDKTYSYLNKLPVKSEYPSIKLVVEWQLQDDKNQSLFCWEIPVQIVSHL
[1]; [6]
  percentage of EdU-negative: 25.6 ± 0.29%
[1]; [7]
  percentage of EdU-negative: 27.1 ± 2%
[2]; [6]
  percentage of EdU-negative: 4.48 ± 0.41%
[2]; [7]
  percentage of EdU-negative: 5.49 ± 0.12%

## MKLCVTVLSLLMLVAAFCSPALSAPMGSDPPTACCFSYTARKLPRNFVVDYYETSSLCSQPAVVFQTKRSKQVCADPSESWVQEYVYDLELN
[1]; [8]
  percentage of EdU-negative: 24.5 ± 1.1%
[1]; [9]
  percentage of EdU-negative: 25.7 ± 0.56%
[2]; [8]
  percentage of EdU-negative: 5.53 ± 0.77%
[2]; [9]
  percentage of EdU-negative: 5.12 ± 0.26%

## MRHLGAFLFLLGVLGALTEMCEIPEMDSHLVEKLGQHLLPWMDRLSLEHLNPSIYVGLRLSSLQAGTKEDLYLHSLKLGYQQCLLGSAFSEDDGDCQGKPSMGQLALYLLALRANCEFVRGHKGDRLVSQLKWFLEDEKRAIGHDHKGHPHTSYYQYGLGILALCLHQKRVHDSVVDKLLYAVEPFHQGHHSVDTAAMAGLAFTCLKRSNFNPGRRQRITMAIRTVREEILKAQTPEGHFGNVYSTPLALQFLMTSPMRGAELGTACLKARVALLASLQDGAFQNALMISQLLPVLNHKTYIDLIFPDCLAPRVMLEPAAETIPQTQEIISVTLQVLSLLPPYRQSISVLAGSTVEDVLKKAHELGGFTYETQASLSGPYLTSVMGKAAGEREFWQLLRDPNTPLLQGIADYRPKDGETIELRLVSW
[1]; protein concentration 0.012 µM
  percentage of EdU-negative: 27 ± 1.9%
[1]; protein concentration 0.12 µM
  percentage of EdU-negative: 25.5 ± 1.3%
[2]; protein concentration 0.012 µM
  percentage of EdU-negative: 5.24 ± 0.2%
[2]; protein concentration 0.12 µM
  percentage of EdU-negative: 6.61 ± 0.18%

## MEALPLLAATTPDHGRHRRLLLLPLLLFLLPAGAVQGWETEERPRTREEECHFYAGGQVYPGEASRVSVADHSLHLSKAKISKPAPYWEGTAVIDGEFKELKLTDYRGKYLVFFFYPLDFTFVCPTEIIAFGDRLEEFRSINTEVVACSVDSQFTHLAWINTPRRQGGLGPIRIPLLSDLTHQISKDYGVYLEDSGHTLRGLFIIDDKGILRQITLNDLPVGRSVDETLRLVQAFQYTDKHGEVCPAGWKPGSETIIPDPAGKLKYFDKLN
[1]; [5]
  percentage of EdU-negative: 26.1 ± 1.3%
[1]; protein concentration 0.225 µM
  percentage of EdU-negative: 27.8 ± 0.15%
[2]; [5]
  percentage of EdU-negative: 5.57 ± 1.3%
[2]; protein concentration 0.225 µM
  percentage of EdU-negative: 4.84 ± 0.26%

## MLLRLLLAWAAAGPTLGQDPWAAEPRAACGPSSCYALFPRRRTFLEAWRACRELGGDLATPRTPEEAQRVDSLVGAGPASRLLWIGLQRQARQCQLQRPLRGFTWTTGDQDTAFTNWAQPASGGPCPAQRCVALEASGEHRWLEGSCTLAVDGYLCQFGFEGACPALQDEAGQAGPAVYTTPFHLVSTEFEWLPFGSVAAVQCQAGRGASLLCVKQPEGGVGWSRAGPLCLGTGCSPDNGGCEHECVEEVDGHVSCRCTEGFRLAADGRSCEDPCAQAPCEQQCEPGGPQGYSCHCRLGFRPAEDDPHRCVDTDECQIAGVCQQMCVNYVGGFECYCSEGHELEADGISCSPAGAMGAQASQDLGDELLDDGEDEEDEDEAWKAFNGGWTEMPGILWMEPTQPPDFALAYRPSFPEDREPQIPYPEPTWPPPLSAPRVPYHSSVLSVTRPVVVSATHPTLPSAHQPPVIPATHPALSRDHQIPVIAANYPDLPSAYQPGILSVSHSAQPPAHQPPMISTKYPELFPAHQSPMFPDTRVAGTQTTTHLPGIPPNHAPLVTTLGAQLPPQAPDALVLRTQATQLPIIPTAQPSLTTTSRSPVSPAHQISVPAATQPAALPTLLPSQSPTNQTSPISPTHPHSKAPQIPREDGPSPKLALWLPSPAPTAAPTALGEAGLAEHSQRDDRWLLVALLVPTCVFLVVLLALGIVYCTRCGPHAPNKRITDCYRWVIHAGSKSPTEPMPPRGSLTGVQTCRTSV [Q9HCU0]
[1]; [10]
  percentage of EdU-negative: 25.7 ± 2.5%
[1]; [11]
  percentage of EdU-negative: 27.5 ± 1.9%
[2]; [10]
  percentage of EdU-negative: 4.69 ± 0.05%
[2]; [11]
  percentage of EdU-negative: 6.87 ± 0.4%
